Reference: the supplement of paper PMC10126150
± gives the standard deviation of the averaged measurements.

Test system: ATP
Experiment: switch fluorescence ratio, 500 uM ATP over buffer (Cy3 cluster intensity, sum of 5 cycles each) (fold (ratio)); higher = stronger signal-on switching upon ATP binding; sequences stand for … in TCGTCGGCAGCGTCAGATGTGTATAAGAGACAGTTTTTTTTTTTTTTTTTTTTTTTTT…TC
Conditions: aptamer strand: ATP DNA aptamer (quencher-CACCTGGGGGAGTATTGCGGAGGAAGG + anchor), 100 nM annealed; ATP concentration: 500 uM
Procedure, shortened: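 Per cluster, summed Cy3 intensity from the target cycles was divided by that from the buffer cycles to give the fluorescence ratio, then averaged per switch-domain sequence. Clusters outside 100-1000 RFU were excluded. The Cy3-labelled switching-strand clusters, on a modified Illumina MiSeq flow-cell, were annealed to 100 nM quencher-labelled ATP aptamer and imaged in selection buffer, then after 15 min with 500 uM ATP at 22 °C, for five cycles with NaOH stripping and re-annealing between them.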
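Also: ATP exposure 15 min at 22 °C before imaging.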

TGTTTAAATT
switch fluorescence ratio: 0.983 ± 0.013

GGCGAAGTGC
switch fluorescence ratio: 1.03 ± 0.013

ACGTTGTGAG
switch fluorescence ratio: 0.969 ± 0.037

TTTTAGAGGA
switch fluorescence ratio: 0.9736 ± 0.0013

AGTATAGTGG
switch fluorescence ratio: 1.03 ± 0.022

TGGATGGCCC
switch fluorescence ratio: 1.02 ± 0.016

AAAAAGTTTG
switch fluorescence ratio: 1 ± 0.04

CTAATGGGGA
switch fluorescence ratio: 0.981 ± 0.044

TCTTTGATCT
switch fluorescence ratio: 1.02 ± 0.054

AGCCTGATCT
switch fluorescence ratio: 1.036 ± 0.0053

GGGTAAGGGC
switch fluorescence ratio: 1.01 ± 0.031

ATGTAAATGT
switch fluorescence ratio: 1.041 ± 0.0077

TTTTATGTCT
switch fluorescence ratio: 0.976 ± 0.03

GGTCTTAGAA
switch fluorescence ratio: 1.033 ± 0.0062

ATCGGAATGG
switch fluorescence ratio: 1.05 ± 0.024

TGGGGTTG
switch fluorescence ratio: 0.993 ± 0.018

TTCCGAGATA
switch fluorescence ratio: 1.119 ± 0.0079

TCTTTGCGCG
switch fluorescence ratio: 1.02 ± 0.019

CGGTTATGGT
switch fluorescence ratio: 0.99 ± 0.022

TTTGGTGAAC
switch fluorescence ratio: 1 ± 0.022

TGATTTGACC
switch fluorescence ratio: 1.03 ± 0.051

TCAACAACCA
switch fluorescence ratio: 1.06 ± 0.017

TGAGTGCTGG
switch fluorescence ratio: 0.9741 ± 0.0017

CTTCCACGGT
switch fluorescence ratio: 1.21 ± 0.12

TGTTTGGGAG
switch fluorescence ratio: 1.01 ± 0.031

CATTCGATGC
switch fluorescence ratio: 1.265 ± 0.0044

GCGATAGGGC
switch fluorescence ratio: 1.02 ± 0.065

AGTTTTGGGC
switch fluorescence ratio: 0.976 ± 0.016

GCGGTATTCT
switch fluorescence ratio: 1.001 ± 0.0042

ATGAGGGGAA
switch fluorescence ratio: 1.04 ± 0.034

GAGGTCGGCA
switch fluorescence ratio: 1.02 ± 0.011

TTGTCGTCGC
switch fluorescence ratio: 0.989 ± 0.024

AATTGGCGGT
switch fluorescence ratio: 1.03 ± 0.027

TCAGACGTTC
switch fluorescence ratio: 1.07 ± 0.05

ATCTGTGATG
switch fluorescence ratio: 0.987 ± 0.024

AGCTGTGTGT
switch fluorescence ratio: 1.012 ± 0.0047

AAATTGTAAA
switch fluorescence ratio: 0.969 ± 0.051

TCCATTAGTT
switch fluorescence ratio: 1.04 ± 0.069

GCCGTAGACC
switch fluorescence ratio: 0.9994 ± 0.0092

TCGCAATGTT
switch fluorescence ratio: 3.58 ± 1

GAGAGGTGGG
switch fluorescence ratio: 1.01 ± 0.024

CGGGGATATT
switch fluorescence ratio: 1.11 ± 0.23

CTCCGGCGGG
switch fluorescence ratio: 1.18 ± 0.057

CCGAAATGGG
switch fluorescence ratio: 1.5 ± 0.07

GAGGTGGTGG
switch fluorescence ratio: 0.998 ± 0.036

TTAAGGACTT
switch fluorescence ratio: 1.01 ± 0.011

TTTCAACATA
switch fluorescence ratio: 0.9987 ± 0.0035

AATGGCGGGC
switch fluorescence ratio: 1.01 ± 0.029

GAGGGAGGCA
switch fluorescence ratio: 0.994 ± 0.019

TTGAGGGGCG
switch fluorescence ratio: 0.996 ± 0.044

CTGCAGGGGG
switch fluorescence ratio: 1.05 ± 0.044

ACCTTACTTA
switch fluorescence ratio: 1.29 ± 0.029

CGGGCCTGAA
switch fluorescence ratio: 0.999 ± 0.041

TCATTCCACT
switch fluorescence ratio: 1.031 ± 0.0059

TGGACGCGGG
switch fluorescence ratio: 1.03 ± 0.016

GCTCAGTTTG
switch fluorescence ratio: 0.992 ± 0.013

GATAGGAAAC
switch fluorescence ratio: 1.12 ± 0.12

GAGAAATTAT
switch fluorescence ratio: 0.9772 ± 0.0067

TGGTTGGACG
switch fluorescence ratio: 0.997 ± 0.017

TTGCTTGCGT
switch fluorescence ratio: 1.01 ± 0.03

GCGCTGTGTG
switch fluorescence ratio: 1 ± 0.041

ATGTAGGGGG
switch fluorescence ratio: 0.988 ± 0.013

ACTGTTCCGA
switch fluorescence ratio: 1.05 ± 0.054

GTTATTGTGT
switch fluorescence ratio: 0.999 ± 0.028

CGCCCCAGTG
switch fluorescence ratio: 3.02 ± 1.8

TACACTGGGT
switch fluorescence ratio: 0.999 ± 0.022

TGATTGGATG
switch fluorescence ratio: 0.9855 ± 0.007

CCATAAACTA
switch fluorescence ratio: 1.01 ± 0.066

CGTTAATCGT
switch fluorescence ratio: 1.01 ± 0.021

GCTGGTTTGT
switch fluorescence ratio: 0.989 ± 0.013

CAAGTTATAA
switch fluorescence ratio: 0.994 ± 0.023

TCGGGTAGGG
switch fluorescence ratio: 0.991 ± 0.025

CCAGACACAC
switch fluorescence ratio: 1.45 ± 0.018

GGGGGCACG
switch fluorescence ratio: 1.006 ± 0.0098

GCCTGCTGGA
switch fluorescence ratio: 1.002 ± 0.0023

TTTTCTGGAA
switch fluorescence ratio: 1.01 ± 0.029

TTTGGGGCGA
switch fluorescence ratio: 1.02 ± 0.031

TCACTGGTTG
switch fluorescence ratio: 1.01 ± 0.011

TGGGGCGAAG
switch fluorescence ratio: 1.01 ± 0.026

TCAAATTCGG
switch fluorescence ratio: 1.01 ± 0.011

GGATTAGGTG
switch fluorescence ratio: 1.12 ± 0.017

AGGAATTTAG
switch fluorescence ratio: 1.02 ± 0.03

TCTATTGGTG
switch fluorescence ratio: 1.02 ± 0.069

AAGTTCGGG
switch fluorescence ratio: 1.035 ± 0.0057

TGAAAAGGTT
switch fluorescence ratio: 0.983 ± 0.023

TGGGTTATCG
switch fluorescence ratio: 0.998 ± 0.025

CCGCTTCCGG
switch fluorescence ratio: 1.08 ± 0.018

TTTCGGCGGG
switch fluorescence ratio: 1 ± 0.013

AATGTTGGAG
switch fluorescence ratio: 0.985 ± 0.028

TTATGTAGGT
switch fluorescence ratio: 0.9798 ± 0.007

AACTATTGCG
switch fluorescence ratio: 0.988 ± 0.019

GACATATTAT
switch fluorescence ratio: 1.013 ± 0.0057

ACATATTTTG
switch fluorescence ratio: 1.01 ± 0.033

GCTTATGCGG
switch fluorescence ratio: 0.949 ± 0.014

CCACCTTAAG
switch fluorescence ratio: 1.04 ± 0.033

TTTCTGGGGC
switch fluorescence ratio: 1.08 ± 0.08

GACGTCAGCG
switch fluorescence ratio: 1.05 ± 0.059

ATTTTGTTCT
switch fluorescence ratio: 0.993 ± 0.031

TAACGTTTTT
switch fluorescence ratio: 1.1 ± 0.024

ACAGATAAAG
switch fluorescence ratio: 0.97 ± 0.045

GGGGGACGGC
switch fluorescence ratio: 0.985 ± 0.049

CTTCGGAGGT
switch fluorescence ratio: 1.028 ± 0.0037

TCTCTATCCG
switch fluorescence ratio: 0.997 ± 0.046

GGTTGGGTGT
switch fluorescence ratio: 1.02 ± 0.027

AATCGGCGGG
switch fluorescence ratio: 0.975 ± 0.022

GCGTAATATG
switch fluorescence ratio: 1.16 ± 0.068

ATGGGTATCT
switch fluorescence ratio: 0.994 ± 0.033

GGTGGTTATT
switch fluorescence ratio: 0.996 ± 0.014

TGATGCAGAA
switch fluorescence ratio: 1.036 ± 0.0041

CCAAACTTAG
switch fluorescence ratio: 1.02 ± 0.027

TTGTGGTTTG
switch fluorescence ratio: 0.992 ± 0.034

GCCGAAAGGA
switch fluorescence ratio: 1.04 ± 0.039

AATCTAGATT
switch fluorescence ratio: 1.002 ± 0.003

CTAGGGTTCT
switch fluorescence ratio: 1.03 ± 0.019

GTCCCCACAG
switch fluorescence ratio: 1.103 ± 0.007

ACTGTGTACC
switch fluorescence ratio: 1.04 ± 0.015

TTGTGTGTAA
switch fluorescence ratio: 0.995 ± 0.014

ATTGCTCTTT
switch fluorescence ratio: 1.0037 ± 0.00058

GGTATGGAGT
switch fluorescence ratio: 1.013 ± 0.0057

ATTTCCCGAT
switch fluorescence ratio: 0.979 ± 0.012

GCAACCACCG
switch fluorescence ratio: 1.137 ± 0.0038

ACAGTCGGGC
switch fluorescence ratio: 1.001 ± 0.0073

GCCATGGGCA
switch fluorescence ratio: 1.002 ± 0.0053

AGGATTTAAG
switch fluorescence ratio: 1.05 ± 0.022

GCTTCGGAGT
switch fluorescence ratio: 1.059 ± 0.01

ACTTTTTTAG
switch fluorescence ratio: 0.992 ± 0.019

TCTTGCTCGT
switch fluorescence ratio: 1.02 ± 0.0014

CGGTGCGGGT
switch fluorescence ratio: 0.992 ± 0.016

AGGGGGTTTA
switch fluorescence ratio: 0.999 ± 0.031

TTTTCGGGTA
switch fluorescence ratio: 1.02 ± 0.0091

AGGGGCTTCT
switch fluorescence ratio: 1.06 ± 0.028

TTGTCCTGTG
switch fluorescence ratio: 1.02 ± 0.036

TTGATTACTC
switch fluorescence ratio: 1.04 ± 0.051

GGTCGAGGTT
switch fluorescence ratio: 0.991 ± 0.035

TGGTTTTCGC
switch fluorescence ratio: 0.975 ± 0.023

TATTGGTAGG
switch fluorescence ratio: 0.941 ± 0.019

CAATTTGTGC
switch fluorescence ratio: 1.02 ± 0.1

GGTCTACAGA
switch fluorescence ratio: 1.02 ± 0.011

CATGTTTGTG
switch fluorescence ratio: 0.982 ± 0.023

ATGGCTTCGT
switch fluorescence ratio: 1.03 ± 0.021

ACATTAGTGG
switch fluorescence ratio: 1.01 ± 0.01

GTTTTAGCTT
switch fluorescence ratio: 1 ± 0.011

TCGCTTTTTT
switch fluorescence ratio: 1.03 ± 0.068

TCAAGATA
switch fluorescence ratio: 1.13 ± 0.21

TTTTCCCCCT
switch fluorescence ratio: 1.081 ± 0.0069

GGCCTGCCAT
switch fluorescence ratio: 0.9813 ± 0.0095

AACGCGTGGT
switch fluorescence ratio: 1.01 ± 0.02

AGGCTTGTTT
switch fluorescence ratio: 0.996 ± 0.015

TTACGACCGG
switch fluorescence ratio: 1.01 ± 0.032

TTAGTTTTGT
switch fluorescence ratio: 0.999 ± 0.027

GCTAGGTCTA
switch fluorescence ratio: 1.01 ± 0.034

TTAGACGCGG
switch fluorescence ratio: 0.98 ± 0.036

GTGGCGCCGC
switch fluorescence ratio: 0.959 ± 0.047

CGGGGGCACC
switch fluorescence ratio: 1.07 ± 0.057

TTTAGGGTAA
switch fluorescence ratio: 1 ± 0.03

CCCCAGGAAT
switch fluorescence ratio: 1.24 ± 0.027

GAGGCGGATG
switch fluorescence ratio: 0.997 ± 0.028

ATTTTTAGT
switch fluorescence ratio: 1 ± 0.016

GGTTTTTGTC
switch fluorescence ratio: 1.01 ± 0.013

TGGGTGGCAA
switch fluorescence ratio: 1.03 ± 0.05

GATGTTAGGA
switch fluorescence ratio: 0.978 ± 0.034

AATAGGATAG
switch fluorescence ratio: 1.02 ± 0.011

GGGGACCAAT
switch fluorescence ratio: 1 ± 0.016

TTAGCGGGGG
switch fluorescence ratio: 1.03 ± 0.06

TTTAATCAAG
switch fluorescence ratio: 0.951 ± 0.021

ATATATCTAG
switch fluorescence ratio: 0.998 ± 0.029

CCTAGTTGTG
switch fluorescence ratio: 1.02 ± 0.016

GGGAGAGGTG
switch fluorescence ratio: 0.989 ± 0.027

TCCTCATGGT
switch fluorescence ratio: 1 ± 0.022

CTGAAGAATT
switch fluorescence ratio: 1.03 ± 0.015

TCGGCTATGA
switch fluorescence ratio: 1.03 ± 0.021

TCCGGTGTG
switch fluorescence ratio: 0.97 ± 0.015

GTTGAATTTT
switch fluorescence ratio: 1.01 ± 0.032

GAATGTAGTC
switch fluorescence ratio: 1.01 ± 0.013

TATAAGTGAT
switch fluorescence ratio: 1.17 ± 0.26

TGGGTTTCT
switch fluorescence ratio: 1 ± 0.041

CAATGCAGGG
switch fluorescence ratio: 1.03 ± 0.014

AGGGCTGCGT
switch fluorescence ratio: 0.984 ± 0.017

AGGGAAATCG
switch fluorescence ratio: 0.979 ± 0.037

AAAGGGAGGA
switch fluorescence ratio: 1.02 ± 0.036

TTTACGTTGC
switch fluorescence ratio: 1.34 ± 0.47

GTGTTAGGGA
switch fluorescence ratio: 1.01 ± 0.015

TATATCGGGT
switch fluorescence ratio: 0.9968 ± 0.0072

GGTAGTAGTA
switch fluorescence ratio: 1 ± 0.034

AGGGCTGCCC
switch fluorescence ratio: 1 ± 0.021

CGTTTGGGCC
switch fluorescence ratio: 1.01 ± 0.069

GGGATTAGTT
switch fluorescence ratio: 1.03 ± 0.023

AAAGTCTAAA
switch fluorescence ratio: 0.977 ± 0.015

CGGGACATGA
switch fluorescence ratio: 1.01 ± 0.012

GTGATTGATC
switch fluorescence ratio: 1.04 ± 0.023

AGCAGAGGGA
switch fluorescence ratio: 1.01 ± 0.011

AAGAGGCCGG
switch fluorescence ratio: 0.986 ± 0.031

CAAGGGAAGT
switch fluorescence ratio: 0.978 ± 0.017

AGTCGTTTGC
switch fluorescence ratio: 0.938 ± 0.061

TGGGAAAGGT
switch fluorescence ratio: 0.994 ± 0.025

GCAGCAGGGT
switch fluorescence ratio: 1.101 ± 0.0034

GGGGTGCATG
switch fluorescence ratio: 0.997 ± 0.054

GTGCGGCCAA
switch fluorescence ratio: 1.02 ± 0.044

CGAATGGAAC
switch fluorescence ratio: 0.989 ± 0.017

TTTTACAATT
switch fluorescence ratio: 0.9885 ± 0.0015
